Here are results for 28 molecules from patent publication US20120058118A1 (Boehringer Ingelheim, published 2012).

In assay [1] the target is T1, human A-beta(1-40) peptide, monomeric (BAM) (human, biotin at the C-terminus in capture ELISA, SPR and TR-FRET; not biotinylated where coated directly (Example 7)).
T1 construct: synthetic peptide (Anaspec), TFA/HFIP treated to give monomer; also called monomeric A-beta
Put plainly: TR-FRET competition; labelled competitor not given. (Time-resolved FRET reads energy transfer from a long-lived donor to a nearby acceptor.)

Assay [2] addresses T1, human A-beta(1-40) peptide, monomeric …. Put plainly: TR-FRET competition, mean IC50.

B1: ABII051 (VHH)
VHH: EVQLLESGGGLVQPGGSLRLSCAASGRTFNNYNMGWFRQAPGKGREFVAAVSRSGVSTYYADSVKGRFTISRDNAKNAVYLQMNSLRPEDTAIYYCGAAYRGTAINVRRSYDSWGQGTLVTVSS
notes: humanized variant of ABII050
Take B1: the IC50 in assay [1] and in assay [2] was 18 nM in each case.

B2: ABII056 (VHH)
VHH: EVQLLESGGGLVQPGGSLRLSCAASGRTFNNYNMGWFRQAPGKGREFVAAVSRSGVSTYYADSVKGRFTISRDNAKNAVYLQMNSLRPEDTAIYYCAAAYRGTAINVRRSYDSWGQGTLVTVSS
notes: humanized variant of ABII050
For B2, the IC50 in assay [1] and in assay [2] was 29 nM throughout.

B3: ABII057 (VHH)
VHH: EVQLLESGGGLVQPGGSLRLSCAASGRTFNNYNMGWFRQAPGKGREFVAAVSRSGVSTYYADSVKGRFTISRDNSKNTVYLQMNSLRPEDTAVYYCAAAYRGTAINVRRSYDSWGQGTLVTVSS
notes: humanized variant of ABII050
For B3, the IC50 in assay [1] and in assay [2] was 46 nM throughout.

B4: ABII054 (VHH)
VHH: EVQLLESGGGLVQPGGSLRLSCAASGRTFNNYNMGWFRQAPGKGREFVAAVSRSGVSTYYADSVKGRFTISRDNAKNALYLQMNSLRPEDTAIYYCGAAYRGTAINVRRSYDSWGQGTLVTVSS
notes: humanized variant of ABII050
In the case of B4, the IC50 in assay [1] and in assay [2] was 51 nM throughout.

B5: ABII055 (VHH)
VHH: EVQLLESGGGLVQPGGSLRLSCAASGRTFNNYNMGWFRQAPGKGREFVAAVSRSGVSTYYADSVKGRFTISRDNAKNAVYLQMNSLRPEDTAVYYCGAAYRGTAINVRRSYDSWGQGTLVTVSS
notes: humanized variant of ABII050
As for B5, the IC50 in assay [1] and in assay [2] was 22 nM throughout.

B6: ABII060 (VHH)
VHH: EVQLLESGGGLVQPGGSLRLSCAASGRTFNNYNMGWFRQAPGKGREFVAAVSRSGVSTYYADSVKGRFTISRDNSKNTLYLQMNSLRPEDTAVYYCAAAYRGTAINVRRSYSSWGQGTLVTVSS
notes: humanized variant of ABII050
Take B6: the IC50 in assay [1] and in assay [2] was 50 nM throughout.

B7: ABII052 (VHH)
VHH: EVQLLESGGGLVQPGGSLRLSCAASGRTFNNYNMGWFRQAPGKGREFVAAVSRSGVSTYYADSVKGRFTISRDNSKNAVYLQMNSLRPEDTAIYYCGAAYRGTAINVRRSYDSWGQGTLVTVSS
notes: humanized variant of ABII050
As for B7, the IC50 in assay [1] and in assay [2] was 19 nM in each case.

B8: ABII053 (VHH)
VHH: EVQLLESGGGLVQPGGSLRLSCAASGRTFNNYNMGWFRQAPGKGREFVAAVSRSGVSTYYADSVKGRFTISRDNAKNTVYLQMNSLRPEDTAIYYCGAAYRGTAINVRRSYDSWGQGTLVTVSS
notes: humanized variant of ABII050
In the case of B8, the IC50 in assay [1] and in assay [2] was 20 nM in each case.

B9: ABII061 (VHH)
VHH: EVQLLESGGGLVQPGGSLRLSCAASGRTFNNYNMGWFRQAPGKGREFVAAVSRSGVSTYYADSVKGRFTISRDNSKNTVYLQMNSLRPEDTAVYYCGAAYRGTAINVRRSYSSWGQGTLVTVSS
notes: humanized variant of ABII050
Turning to B9, in assay [1], the concentration for half-maximal inhibition (IC50) (as a rule, the concentration at which inhibition is half-maximal) is 2.4 nM.

B10: ABII058 (VHH)
VHH: EVQLLESGGGLVQPGGSLRLSCAASGRTFNNYNMGWFRQAPGKGREFVAAVSRSGVSTYYADSVKGRFTISRDNSKNTLYLQMNSLRPEDTAVYYCAAAYRGTAINVRRSYDSWGQGTLVTVSS
notes: humanized variant of ABII050
Regarding B10, the IC50 in assay [1] and in assay [2] was 73 nM in each case.

B11: ABII003 (VHH)
VHH: EVQLLESGGGLVLPGGSLRLSCVHSGPTFRTDTMGWFRQAPGKGREFVAAVTWNSGRINYADSVKGRFTVSRDNTRNAAYLQMSGLKDEDTAVYYCTAHRFVVGGNRVEDWRYWGQGTLVTVSS
notes: humanized variant of ABII002
In the case of B11, the IC50 in assay [1] and in assay [2] was 2.1 nM throughout.

B12: ABII037 (VHH)
VHH: EVQLLESGGGLVQPGGSLRLSCVHSGPTFRTDTMGWFRQAPGKGREFVAAVTWNSGRINYADSVKGRFTISRDNSKNTAYLQMNSLRAEDTAVYYCAAHRFVVGGNRVEDWRYWGQGTLVTVSS
notes: humanized variant of ABII002
The molecule B12 displayed an IC50 in assay [1] of 3.1 nM.

B13: ABII006 (VHH)
VHH: EVQLLESGGGLVLPGGSLRLSCVASGPTFRTDTMGWFRQAPGKGREFVAAVTWNSGRINYADSVKGRFTVSRDNTRNAAYLQMSGLKDEDTAVYYCTAHRFVVGGNRVEDWRYWGQGTLVTVSS
notes: humanized variant of ABII002
As for B13, the IC50 in assay [1] and in assay [2] was 80 nM throughout.

B14: ABII017 (VHH)
VHH: EVQLLESGGGLVLPGGSLRLSCVHSGPTFRTDTMGWFRQAPGKGREFVAAVTWNSGRINYADSVKGRFTVSRDNTRNAAYLQMSGLKDEDTAVYYCAAHRFVVGGNRVEDWRYWGQGTLVTVSS
notes: humanized variant of ABII002
As for B14, the IC50 in assay [1] and in assay [2] was 2.4 nM in each case.

B15: ABII004 (VHH)
VHH: EVQLLESGGGLVQPGGSLRLSCVHSGPTFRTDTMGWFRQAPGKGREFVAAVTWNSGRINYADSVKGRFTVSRDNTRNAAYLQMSGLKDEDTAVYYCTAHRFVVGGNRVEDWRYWGQGTLVTVSS
notes: humanized variant of ABII002
On to B15, for which the IC50 in assay [1] and in assay [2] was 2.1 nM each time.

B16: ABII018 (VHH)
VHH: EVQLLESGGGLVQPGGSLRLSCVHSGPTFRTDTMGWFRQAPGKGREFVAAVTWNSGRINYADSVKGRFTVSRDNTRNAAYLQMSGLKPEDTAVYYCTAHRFVVGGNRVEDWRYWGQGTLVTVSS
notes: humanized variant of ABII002
Take B16: the IC50 in assay [1] and in assay [2] was 3.2 nM throughout.

B17: ABII014 (VHH)
VHH: EVQLLESGGGLVLPGGSLRLSCVHSGPTFRTDTMGWFRQAPGKGREFVAAVTWNSGRINYADSVKGRFTVSRDNTRNAAYLQMSGLRDEDTAVYYCTAHRFVVGGNRVEDWRYWGQGTLVTVSS
notes: humanized variant of ABII002
Take B17: the IC50 in assay [1] and in assay [2] was 1.3 nM each time.

B18: ABII011 (VHH)
VHH: EVQLLESGGGLVLPGGSLRLSCVHSGPTFRTDTMGWFRQAPGKGREFVAAVTWNSGRINYADSVKGRFTVSRDNTRNALYLQMSGLKDEDTAVYYCTAHRFVVGGNRVEDWRYWGQGTLVTVSS
notes: humanized variant of ABII002
Regarding B18, the IC50 in assay [1] and in assay [2] was 24 nM in each case.

B19: ABII013 (VHH)
VHH: EVQLLESGGGLVLPGGSLRLSCVHSGPTFRTDTMGWFRQAPGKGREFVAAVTWNSGRINYADSVKGRFTVSRDNTRNAAYLQMSSLKDEDTAVYYCTAHRFVVGGNRVEDWRYWGQGTLVTVSS
notes: humanized variant of ABII002
With B19, the IC50 in assay [1] and in assay [2] was 1.6 nM throughout.

B20: ABII015 (VHH)
VHH: EVQLLESGGGLVLPGGSLRLSCVHSGPTFRTDTMGWFRQAPGKGREFVAAVTWNSGRINYADSVKGRFTVSRDNTRNAAYLQMSGLKAEDTAVYYCTAHRFVVGGNRVEDWRYWGQGTLVTVSS
notes: humanized variant of ABII002
For the molecule B20, the IC50 in assay [1] and in assay [2] was 1.8 nM throughout.

B21: ABII007 (VHH)
VHH: EVQLLESGGGLVLPGGSLRLSCVHSGPTFRTDTMGWFRQAPGKGREFVAAVTWNSGRINYADSVKGRFTISRDNTRNAAYLQMSGLKDEDTAVYYCTAHRFVVGGNRVEDWRYWGQGTLVTVSS
notes: humanized variant of ABII002
For the molecule B21, the IC50 in assay [1] and in assay [2] was 1.6 nM each time.

B22: ABII012 (VHH)
VHH: EVQLLESGGGLVLPGGSLRLSCVHSGPTFRTDTMGWFRQAPGKGREFVAAVTWNSGRINYADSVKGRFTVSRDNTRNAAYLQMNGLKDEDTAVYYCTAHRFVVGGNRVEDWRYWGQGTLVTVSS
notes: humanized variant of ABII002
In the case of B22, the half-inhibitory concentration (IC50) in assay [1] and in assay [2] was 1.5 nM each time.

B23: ABII008 (VHH)
VHH: EVQLLESGGGLVLPGGSLRLSCVHSGPTFRTDTMGWFRQAPGKGREFVAAVTWNSGRINYADSVKGRFTVSRDNSRNAAYLQMSGLKDEDTAVYYCTAHRFVVGGNRVEDWRYWGQGTLVTVSS
notes: humanized variant of ABII002
Turning to B23, the IC50 in assay [1] and in assay [2] was 1.9 nM throughout.

B24: ABII009 (VHH)
VHH: EVQLLESGGGLVLPGGSLRLSCVHSGPTFRTDTMGWFRQAPGKGREFVAAVTWNSGRINYADSVKGRFTVSRDNTKNAAYLQMSGLKDEDTAVYYCTAHRFVVGGNRVEDWRYWGQGTLVTVSS
notes: humanized variant of ABII002
For B24, the IC50 in assay [1] and in assay [2] was 1.7 nM in each case.

B25: ABII005 (VHH)
VHH: EVQLLESGGGLVLPGGSLRLSCAHSGPTFRTDTMGWFRQAPGKGREFVAAVTWNSGRINYADSVKGRFTVSRDNTRNAAYLQMSGLKDEDTAVYYCTAHRFVVGGNRVEDWRYWGQGTLVTVSS
notes: humanized variant of ABII002
Take B25: the IC50 in assay [1] and in assay [2] was 3.3 nM in each case.

B26: ABII016 (VHH)
VHH: EVQLLESGGGLVLPGGSLRLSCVHSGPTFRTDTMGWFRQAPGKGREFVAAVTWNSGRINYADSVKGRFTVSRDNTRNAAYLQMSGLKPEDTAVYYCTAHRFVVGGNRVEDWRYWGQGTLVTVSS
notes: humanized variant of ABII002
On to B26, for which the IC50 in assay [1] and in assay [2] was 2.4 nM each time.

B27: ABII010 (VHH)
VHH: EVQLLESGGGLVLPGGSLRLSCVHSGPTFRTDTMGWFRQAPGKGREFVAAVTWNSGRINYADSVKGRFTVSRDNTRNTAYLQMSGLKDEDTAVYYCTAHRFVVGGNRVEDWRYWGQGTLVTVSS
notes: humanized variant of ABII002
As for B27, the IC50 in assay [1] and in assay [2] was 1.9 nM throughout.

B28: ABII019 (VHH)
VHH: EVQLLESGGGLVQPGGSLRLSCAHSGPTFRTDTMGWFRQAPGKGREFVAAVTWNSGRINYADSVKGRFTISRDNSKNTVYLQMNSLRPEDTAVYYCAAHRFVVGGNRVEDWRYWGQGTLVTVSS
notes: humanized variant of ABII002
On to B28, for which the IC50 in assay [1] and in assay [2] was 14 nM in each case.
